Patent US20250382344A1, “Soluble GLP1/GIP/NPY2 Receptor Triple Agonists” (Boehringer Ingelheim International GmH, priority 2024, published 2025)
Substitutions are numbered along the chain they refer to. Like-named read-outs stand apart in the source and are kept apart here. *1 amine or outer side, *2 acyl side, *3 side chain or, on linkers, in order; H or OH if unused. Where no end group is shown, it is not given here. Side-chain parts run from the residue outwards. [ ]: non-standard residue; d: D form. The star is where a group is joined. C20 diacid = O=C(O)CCCCCCCCCCCCCCCCCCC(=O)*; C18 diacid = O=C(O)CCCCCCCCCCCCCCCCC(=O)*; γGlu = O=C(O)[C@H](CCC(=O)[*:2])N[*:1]; εLys = N[C@@H](CCCCN[*:1])C(=O)[*:2]; dOR = not defined here; Aib = CC(C)(N)C(=O)O

B1: Compound 12 (peptide)
peptide: Y[Aib]EGTFTSDYSI[Aib]LEKQAQ[Aib]AFVRHLINK([γGlu-γGlu-γGlu-γGlu-γGlu-γGlu-C18 diacid])LTRQRY-NH2
B2: Compound 68 (peptide)
peptide: YXEGTFTSDYSIXLEKQAQXAFVRHLIAKXTRQRY
modifications: Aib at 2, 13, 20, 30; Lys29 epsilon-amino acylated with C18DA-gGlu-gGlu-gGlu-gGlu-gGlu-gGlu-eLys; C-terminal amide
B3: Compound 14 (peptide)
peptide: B2 peptide with A21E, A28N
modifications: Aib at 2, 13, 20, 30; Lys29 epsilon-amino acylated with C18DA-gGlu-gGlu-gGlu-gGlu-gGlu-AHX; C-terminal amide
B4: Compound 74 (peptide)
peptide: B2 peptide with E15D, A28N
modifications: Aib at 2, 13, 20, 30; Lys29 epsilon-amino acylated with C20DA-gGlu-gGlu-gGlu-gGlu-gGlu-gGlu-eLys; C-terminal amide
B5: Compound 81 (peptide)
peptide: B2 peptide with E15D, V23I, A28N
modifications: Aib at 2, 13, 20, 30; Lys29 epsilon-amino acylated with C20DA-gGlu-gGlu-gGlu-gGlu-gGlu-gGlu-eLys; C-terminal amide
B6: Compound 16 (peptide)
peptide: Y[Aib]EGTFTSDYSI[Aib]LDKQAQ[Aib]AFVRHLINK([εLys-γGlu-γGlu-γGlu-γGlu-γGlu-γGlu-γGlu-C20 diacid])[Aib]TRQ[dOR]Y-NH2
modifications: reading uncertain

Experiments:
hGIPR = target: T1, hGIPR (Homo sapiens, UniProt P48546); test: hGIPR CreLuc assay in 0.5% and 100% plasma (CHO CRE-luciferase reporter cells); assay type: cell-based; details: 0.5% human plasma, read-out: hGIPR 0.5% hP
T1 construct: expressed in transfected cells; host or cells: CHO CRE-luciferase reporter cells
T1 sequence (P48546 22-466): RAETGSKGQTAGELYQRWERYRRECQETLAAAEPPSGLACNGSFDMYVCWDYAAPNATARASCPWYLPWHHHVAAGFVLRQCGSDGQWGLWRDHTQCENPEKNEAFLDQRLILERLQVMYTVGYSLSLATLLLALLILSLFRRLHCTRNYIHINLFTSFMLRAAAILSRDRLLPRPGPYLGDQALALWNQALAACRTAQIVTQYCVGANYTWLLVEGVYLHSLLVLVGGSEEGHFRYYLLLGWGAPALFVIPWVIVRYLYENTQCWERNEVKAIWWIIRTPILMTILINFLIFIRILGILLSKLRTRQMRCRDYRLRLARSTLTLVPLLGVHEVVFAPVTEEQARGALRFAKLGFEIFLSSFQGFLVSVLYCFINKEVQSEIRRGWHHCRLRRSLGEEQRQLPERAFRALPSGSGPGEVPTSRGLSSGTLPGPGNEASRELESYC

hNPY2R = target: T2, hNPY2R (Homo sapiens, UniProt P49146); test: hNPY2R CreLuc assay in 0.5% and 100% plasma (HEK-293 CRE-luciferase reporter cells); assay type: cell-based; details: HEK-293 reporter cells
T2 construct: expressed in transfected cells; host or cells: HEK-293 CRE-luciferase reporter cells
T2 sequence (P49146 1-381): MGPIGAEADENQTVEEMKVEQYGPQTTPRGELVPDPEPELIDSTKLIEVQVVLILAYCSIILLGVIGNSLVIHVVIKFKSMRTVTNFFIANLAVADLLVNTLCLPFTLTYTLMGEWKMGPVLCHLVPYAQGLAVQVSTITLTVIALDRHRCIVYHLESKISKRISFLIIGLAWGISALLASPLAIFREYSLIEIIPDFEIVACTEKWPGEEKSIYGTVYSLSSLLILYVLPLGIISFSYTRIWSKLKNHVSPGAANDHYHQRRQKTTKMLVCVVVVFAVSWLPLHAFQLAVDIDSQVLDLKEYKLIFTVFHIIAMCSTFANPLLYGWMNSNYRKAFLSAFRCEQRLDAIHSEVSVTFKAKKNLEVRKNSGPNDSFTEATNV
Text: CHO and HEK-293 recombinant cell lines express a luciferase reporter gene under control of the CAMP responsive element (CRE). As a second recombinant protein the GLP-1 and NPY2 receptors were expressed in the reporter gene HEK cells, and the GIP receptor was expressed in the reporter gene CHO cells, respectively. Stimulation of these recombinant cells with an agonist leads to an increase of intracellular CAMP levels. In the presence of CAMP, the transcription factor CRE binding protein (CREB) binds to the CRE and to the CREB binding protein (CBP), which leads to transcription of the luciferase reporter gene. Peptides upon serial-dilution in 100% DMSO were transferred into 384-well assay plates with 5 μl pre-dispensed assay buffer (1×HBSS, 20 mM HEPES, pH7.4 supplemented with 0.5% human plasma) using acoustic dispensing on a Labcyte ECHO. Cryo-preserved transgenic reporter gene cells were thawed in assay buffer. 20 μl (10.000 cells/well) were added to the plate with the peptides and incubated for 4 hours at 37° C. in a humidified incubator. Following incubation, assay plates are equilibrated to room temperature, followed by addition of 25 μl of Bright-Glo™ Luciferase reagent, incubation at room temperature for 10 minutes and analysis of luminescence (Envision Reader). […] EC50 values were calculated by non-linear regression using sigmoid concentration-response with variable slope.
The same assays were run in the presence of 100% plasma with no additional buffer constituents.

[1] = Solubility in 0.1 M phosphate buffer at pH 7; assay type: physicochemical; details: 0.1 M phosphate buffer at pH 7, 10 mg/mL final peptide concentration, shaking 2 hours at room temperature, peptides as TFA-salts; measured sample pH 6.5-7.0
[2] = target: T3, human neuropeptide Y2 receptor (human, UniProt P49146 1-381); test: cell-based or functional assay
T3 sequence (looked up): T2 sequence (P49146 1-381)

human GLP-1 receptor = human GLP-1 receptor (human, UniProt P43220 24-463); test: cell-based or functional assay
human GIP receptor = target: T4, human GIP receptor (human, UniProt P48546 22-466); test: cell-based or functional assay
T4 sequence (looked up): T1 sequence (P48546 22-466)

[3] = 0.5% human plasma, read-out: hNPY2R 0.5% hP

Row | Molecule | EC50 (hGIPR) [nM] | EC50 (hNPY2R; [3]) [nM] | solubility at 2 h [1] [mg/mL] | EC50 (hNPY2R; hNPY2R 100% hP (nM), 100% human plasma) [nM] | EC50, CreLuc reporter, 0.5% hP [2] [nM] | EC50, CreLuc reporter, 100% hP [2] [nM] | EC50, CreLuc reporter, 0.5% hP (human GLP-1 receptor) [nM] | EC50, CreLuc reporter, 0.5% hP (human GIP receptor) [nM] | EC50, CreLuc reporter, 100% hP (human GLP-1 receptor) [nM] | EC50, CreLuc reporter, 100% hP (human GIP receptor) [nM]
1 | CC[C@H](C)[C@H](NC(=O)[C@H](CO)NC(=O)[C@H](Cc1ccc(O)cc1)NC(=O)[C@H](CC(=O)O)NC(=O)[C@H](CO)NC(=O)[C@@H](NC(=O)[C@H](Cc1ccccc1)NC(=O)[C@@H](NC(=O)CNC(=O)[C@H](CCC(=O)O)NC(=O)C(C)(C)NC(=O)[C@@H](N)Cc1ccc(O)cc1)[C@@H](C)O)[C@@H](C)O)C(=O)N[C@@H](C)C(=O)N[C@@H](CC(C)C)C(=O)N[C@@H](CCC(=O)O)C(=O)N[C@@H](CCCCN)C(=O)N[C@@H](CCC(N)=O)C(=O)N[C@@H](C)C(=O)N[C@@H](CCC(N)=O)C(=O)NC(C)(C)C(=O)N[C@@H](C)C(=O)N[C@@H](Cc1ccccc1)C(=O)N[C@H](C(=O)N[C@@H](CCCNC(=N)N)C(=O)N[C@@H](Cc1c[nH]cn1)C(=O)N[C@@H](CC(C)C)C(=O)N[C@H](C(=O)N[C@@H](CC(N)=O)C(=O)N[C@@H](CCCCNC(=O)CC[C@H](NC(=O)CC[C@H](NC(=O)CC[C@H](NC(=O)CC[C@H](NC(=O)CC[C@H](NC(=O)CC[C@H](NC(=O)CCCCCCCCCCCCCCCCCCC(=O)O)C(=O)O)C(=O)O)C(=O)O)C(=O)O)C(=O)O)C(=O)O)C(=O)NC(C)(C)C(=O)N[C@H](C(=O)N[C@@H](CCCNC(=N)N)C(=O)N[C@@H](CCC(N)=O)C(=O)N[C@@H](CCCNC(=N)N)C(=O)N[C@@H](Cc1ccc(O)cc1)C(N)=O)[C@@H](C)O)[C@@H](C)CC)C(C)C [Compound 29, Y-Aib-E-G-T-F-T-S-D-Y-S-I-A-L-E-K-Q-A-Q-Aib-A-F-V-R-H-L-I-N-K(1,3)-Aib-T-R-Q-R-Y-NH2.C20DA-gGlu-gGlu-gGlu-gGlu-gGlu-gGlu(1,2)] | 0.8 | 41.3 | 10 | – | – | – | – | – | – | –
2 | CC[C@H](C)[C@H](NC(=O)[C@H](CO)NC(=O)[C@H](Cc1ccc(O)cc1)NC(=O)[C@H](CC(=O)O)NC(=O)[C@H](CO)NC(=O)[C@@H](NC(=O)[C@H](Cc1ccccc1)NC(=O)[C@@H](NC(=O)CNC(=O)[C@H](CCC(=O)O)NC(=O)C(C)(C)NC(=O)[C@@H](N)Cc1ccc(O)cc1)[C@@H](C)O)[C@@H](C)O)C(=O)NC(C)(C)C(=O)N[C@@H](CC(C)C)C(=O)N[C@@H](CCC(=O)O)C(=O)N[C@@H](CCCCN)C(=O)N[C@@H](CCC(N)=O)C(=O)N[C@@H](C)C(=O)N[C@@H](CCC(N)=O)C(=O)NC(C)(C)C(=O)N[C@@H](C)C(=O)N[C@@H](Cc1ccccc1)C(=O)N[C@H](C(=O)N[C@@H](CCCNC(=N)N)C(=O)N[C@@H](Cc1c[nH]cn1)C(=O)N[C@@H](CC(C)C)C(=O)N[C@@H](Cc1ccc(O)cc1)C(=O)N[C@@H](CC(N)=O)C(=O)N[C@@H](CCCCNC(=O)[C@@H](N)CCCCNC(=O)CC[C@H](NC(=O)CC[C@H](NC(=O)CC[C@H](NC(=O)CC[C@H](NC(=O)CC[C@H](NC(=O)CC[C@H](NC(=O)CCCCCCCCCCCCCCCCC(=O)O)C(=O)O)C(=O)O)C(=O)O)C(=O)O)C(=O)O)C(=O)O)C(=O)NC(C)(C)C(=O)N[C@H](C(=O)N[C@@H](CCCNC(=N)N)C(=O)N[C@@H](CCC(N)=O)C(=O)N[C@@H](CCCNC(=N)N)C(=O)N[C@@H](Cc1ccc(O)cc1)C(N)=O)[C@@H](C)O)C(C)C [Compound 58, Y-Aib-E-G-T-F-T-S-D-Y-S-I-Aib-L-E-K-Q-A-Q-Aib-A-F-V-R-H-L-Y-N-K(1,3)-Aib-T-R-Q-R-Y-NH2.C18DA-gGlu-gGlu-gGlu-gGlu-gGlu-gGlu-eLys(1,2)] | – | – | 3.3 | 40 | – | – | – | – | – | –
3 | CC[C@H](C)[C@H](NC(=O)[C@H](CC(C)C)NC(=O)[C@H](Cc1c[nH]cn1)NC(=O)[C@H](CCCNC(=N)N)NC(=O)[C@@H](NC(=O)[C@H](Cc1ccccc1)NC(=O)[C@H](C)NC(=O)C(C)(C)NC(=O)[C@H](CCC(N)=O)NC(=O)[C@H](C)NC(=O)[C@H](CCC(N)=O)NC(=O)[C@H](CCCNC(=N)N)NC(=O)[C@H](CCC(=O)O)NC(=O)[C@H](CC(C)C)NC(=O)C(C)(C)NC(=O)[C@@H](NC(=O)[C@H](CO)NC(=O)[C@H](Cc1ccc(O)cc1)NC(=O)[C@H](CC(=O)O)NC(=O)[C@H](CO)NC(=O)[C@@H](NC(=O)[C@H](Cc1ccccc1)NC(=O)[C@@H](NC(=O)CNC(=O)[C@H](CCC(=O)O)NC(=O)C(C)(C)NC(=O)[C@@H](N)Cc1ccc(O)cc1)[C@@H](C)O)[C@@H](C)O)[C@@H](C)CC)C(C)C)C(=O)N[C@@H](CC(N)=O)C(=O)N[C@@H](CCCCNC(=O)[C@@H](N)CCCCNC(=O)CC[C@H](NC(=O)CC[C@H](NC(=O)CC[C@H](NC(=O)CC[C@H](NC(=O)CC[C@H](NC(=O)CC[C@H](NC(=O)CCCCCCCCCCCCCCCCCCC(=O)O)C(=O)O)C(=O)O)C(=O)O)C(=O)O)C(=O)O)C(=O)O)C(=O)NC(C)(C)C(=O)N[C@H](C(=O)N[C@@H](CCCNC(=N)N)C(=O)N[C@@H](CCC(N)=O)C(=O)N[C@@H](CCCNC(=N)N)C(=O)N[C@@H](Cc1ccc(O)cc1)C(N)=O)[C@@H](C)O [Compound 171, Y-Aib-E-G-T-F-T-S-D-Y-S-I-Aib-L-E-R-Q-A-Q-Aib-A-F-V-R-H-L-I-N-K(1,3)-Aib-T-R-Q-R-Y-NH2.C20DA-gGlu-gGlu-gGlu-gGlu-gGlu-gGlu-eLys(1,2)] | 0.4 | 9.9 | – | – | – | – | – | – | – | –
4 | B1 | – | – | – | – | 47.6 | 140 | 1.8 | 0.8 | – | –
5 | B2 | – | – | – | – | 150 | 690 | 0.6 | 0.2 | 3.3 | 3
6 | B3 | – | – | – | – | 16.8 | 388 | 0.3 | 0.1 | – | –
7 | B4 | – | – | – | – | 7.1 | 90.6 | 0.4 | 0.5 | 3.3 | –
8 | B5 | – | – | – | – | 7.2 | 52.4 | 0.6 | 0.5 | 3.8 | –
9 | B6 | – | – | – | – | – | 59.1 | 0.7 | 0.5 | 1.8 | 2
